Measured values reported in paper doi:10.1101/2022.04.27.489743 (bioRxiv, 2022).

Assays:
Test in all cases: ITC
[1] = molecular target: AnkG R6-16 (UniProt O70511)
[2] = molecular target: T1, AnkG ANK repeats (R1-24, residues 38-855) (UniProt O70511 38-855)
T1 sequence: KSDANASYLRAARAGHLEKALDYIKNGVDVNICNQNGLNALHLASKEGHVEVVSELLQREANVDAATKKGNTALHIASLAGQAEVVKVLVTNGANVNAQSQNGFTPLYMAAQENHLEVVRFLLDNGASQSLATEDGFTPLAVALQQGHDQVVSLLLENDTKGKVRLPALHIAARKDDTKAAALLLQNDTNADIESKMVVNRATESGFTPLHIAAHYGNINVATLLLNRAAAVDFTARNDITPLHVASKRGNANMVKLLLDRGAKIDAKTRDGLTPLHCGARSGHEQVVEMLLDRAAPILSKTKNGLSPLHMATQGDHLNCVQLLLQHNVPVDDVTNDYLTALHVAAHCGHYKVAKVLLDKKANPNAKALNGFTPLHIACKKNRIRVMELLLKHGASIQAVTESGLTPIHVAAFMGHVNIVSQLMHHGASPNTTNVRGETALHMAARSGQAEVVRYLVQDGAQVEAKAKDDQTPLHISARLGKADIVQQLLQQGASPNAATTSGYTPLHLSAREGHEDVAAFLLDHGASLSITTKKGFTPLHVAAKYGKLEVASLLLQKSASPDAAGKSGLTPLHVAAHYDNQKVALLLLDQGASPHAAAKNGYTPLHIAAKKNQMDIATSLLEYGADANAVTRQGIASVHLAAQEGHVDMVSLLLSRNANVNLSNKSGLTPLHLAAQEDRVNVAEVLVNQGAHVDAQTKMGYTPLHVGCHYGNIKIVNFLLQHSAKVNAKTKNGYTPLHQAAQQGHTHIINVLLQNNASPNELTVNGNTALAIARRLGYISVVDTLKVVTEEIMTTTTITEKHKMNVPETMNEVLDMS

[3] = molecular target: T2, AnkG 275-571 (AnkG R8-16) (UniProt O70511 275-571)
T2 sequence: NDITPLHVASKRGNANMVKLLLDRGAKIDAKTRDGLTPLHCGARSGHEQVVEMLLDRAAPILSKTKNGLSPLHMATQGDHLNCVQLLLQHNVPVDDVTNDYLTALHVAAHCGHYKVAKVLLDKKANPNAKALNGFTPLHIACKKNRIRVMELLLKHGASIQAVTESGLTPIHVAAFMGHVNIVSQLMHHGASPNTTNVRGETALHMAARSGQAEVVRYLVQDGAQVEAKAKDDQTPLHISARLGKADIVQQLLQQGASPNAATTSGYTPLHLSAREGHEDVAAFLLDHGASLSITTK

AnkG R6-16, sequence (O70511 whole entry, the tested form may be a part): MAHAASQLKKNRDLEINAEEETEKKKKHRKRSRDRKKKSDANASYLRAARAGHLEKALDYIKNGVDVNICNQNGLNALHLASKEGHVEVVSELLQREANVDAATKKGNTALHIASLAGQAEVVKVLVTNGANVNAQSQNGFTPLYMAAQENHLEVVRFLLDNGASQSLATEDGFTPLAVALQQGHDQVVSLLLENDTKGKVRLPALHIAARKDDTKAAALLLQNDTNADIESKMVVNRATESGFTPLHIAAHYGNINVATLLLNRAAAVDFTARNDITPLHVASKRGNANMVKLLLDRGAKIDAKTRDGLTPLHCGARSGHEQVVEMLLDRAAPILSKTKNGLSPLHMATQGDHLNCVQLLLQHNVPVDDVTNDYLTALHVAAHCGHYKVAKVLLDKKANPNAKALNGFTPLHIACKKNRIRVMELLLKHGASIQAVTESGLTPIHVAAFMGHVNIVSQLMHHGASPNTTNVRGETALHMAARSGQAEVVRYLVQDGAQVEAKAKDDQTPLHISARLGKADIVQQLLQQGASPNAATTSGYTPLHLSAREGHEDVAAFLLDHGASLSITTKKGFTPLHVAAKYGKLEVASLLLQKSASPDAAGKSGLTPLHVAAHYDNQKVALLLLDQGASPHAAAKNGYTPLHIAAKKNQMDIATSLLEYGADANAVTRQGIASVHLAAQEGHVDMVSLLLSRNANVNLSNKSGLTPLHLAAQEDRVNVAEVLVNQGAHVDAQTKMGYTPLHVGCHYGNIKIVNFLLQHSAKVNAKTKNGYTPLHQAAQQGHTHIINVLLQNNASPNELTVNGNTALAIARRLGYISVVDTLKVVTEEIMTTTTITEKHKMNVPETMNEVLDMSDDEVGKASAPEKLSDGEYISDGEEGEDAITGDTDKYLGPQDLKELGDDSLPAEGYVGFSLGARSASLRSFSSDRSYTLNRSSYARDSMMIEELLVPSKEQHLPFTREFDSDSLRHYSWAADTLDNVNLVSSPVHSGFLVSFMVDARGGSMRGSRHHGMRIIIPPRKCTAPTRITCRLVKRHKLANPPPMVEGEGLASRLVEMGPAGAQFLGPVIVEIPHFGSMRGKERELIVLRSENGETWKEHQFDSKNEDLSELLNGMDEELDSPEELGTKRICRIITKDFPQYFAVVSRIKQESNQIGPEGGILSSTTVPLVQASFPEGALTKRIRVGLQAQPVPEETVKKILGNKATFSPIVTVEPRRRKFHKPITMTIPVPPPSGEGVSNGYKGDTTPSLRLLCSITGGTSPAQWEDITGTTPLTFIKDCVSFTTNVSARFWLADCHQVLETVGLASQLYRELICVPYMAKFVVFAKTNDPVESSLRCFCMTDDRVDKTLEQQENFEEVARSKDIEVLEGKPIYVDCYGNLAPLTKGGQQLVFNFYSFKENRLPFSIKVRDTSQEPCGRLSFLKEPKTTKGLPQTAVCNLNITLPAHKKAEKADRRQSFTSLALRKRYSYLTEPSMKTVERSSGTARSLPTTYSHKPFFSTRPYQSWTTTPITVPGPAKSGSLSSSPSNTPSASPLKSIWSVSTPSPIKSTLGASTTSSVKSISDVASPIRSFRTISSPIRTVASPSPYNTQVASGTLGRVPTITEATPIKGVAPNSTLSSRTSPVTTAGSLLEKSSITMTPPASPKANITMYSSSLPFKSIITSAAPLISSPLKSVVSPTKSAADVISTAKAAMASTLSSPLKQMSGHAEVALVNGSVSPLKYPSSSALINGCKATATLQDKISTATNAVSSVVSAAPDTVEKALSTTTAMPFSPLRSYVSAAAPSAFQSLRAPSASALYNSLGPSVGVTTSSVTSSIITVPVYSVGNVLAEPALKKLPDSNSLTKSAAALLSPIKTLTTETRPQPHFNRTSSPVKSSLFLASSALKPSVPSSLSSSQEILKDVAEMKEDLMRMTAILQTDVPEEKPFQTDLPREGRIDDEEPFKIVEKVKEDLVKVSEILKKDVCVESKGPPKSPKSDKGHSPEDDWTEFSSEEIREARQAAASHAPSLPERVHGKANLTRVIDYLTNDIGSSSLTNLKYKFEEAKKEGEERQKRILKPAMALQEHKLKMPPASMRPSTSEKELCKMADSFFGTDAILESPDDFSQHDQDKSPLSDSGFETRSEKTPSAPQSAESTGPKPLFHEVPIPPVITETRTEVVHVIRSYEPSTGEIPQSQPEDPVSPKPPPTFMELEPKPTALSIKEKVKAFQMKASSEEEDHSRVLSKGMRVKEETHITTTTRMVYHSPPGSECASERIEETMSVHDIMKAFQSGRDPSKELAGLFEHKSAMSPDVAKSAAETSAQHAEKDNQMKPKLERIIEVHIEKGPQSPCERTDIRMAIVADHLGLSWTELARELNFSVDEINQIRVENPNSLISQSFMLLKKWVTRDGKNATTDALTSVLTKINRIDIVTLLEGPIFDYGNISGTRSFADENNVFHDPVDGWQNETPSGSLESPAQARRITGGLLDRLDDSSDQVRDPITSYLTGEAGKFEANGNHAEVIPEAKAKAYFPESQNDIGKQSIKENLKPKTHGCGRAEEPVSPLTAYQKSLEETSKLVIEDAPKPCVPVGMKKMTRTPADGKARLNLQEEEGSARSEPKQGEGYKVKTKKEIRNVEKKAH

Molecule: Nfasc ankyrin binding domain (ABD), residues 1187-1214 (from UniProt P97685 1187-1214) (domain or fragment)
- Kd [1]: 290 nM

Molecule: GEGQFNADGSFIGQYTV [Nfasc 1198-1214 E1204A]
- fold decrease in binding affinity against Nfasc 1198-1214 WT [2]: ~27 fold

Molecule: GEGQFNEDGSFIGQETV [Nfasc 1198-1214 Y1212E]
- fold decrease in binding against Nfasc 1198-1214 WT [2]: ~9 fold

Molecule: GEGQQNEDGSFIGQYTV [Nfasc 1198-1214 F1202Q]
- fold decrease in binding against Nfasc 1198-1214 WT [2]: > 20 fold

Molecule: SDDSLVDYGEGGEGQFNEDGSFIGQYTV (domain or fragment) [Nfasc ankyrin binding domain (ABD), residues 1187-1214]
- Kd [2]: ~220 nM
- Kd [3]: ~1200 nM
